Article PMC6133988, “Characterization of Arabidopsis thaliana Hydroxyphenylpyruvate Reductases in the Tyrosine Conversion Pathway” (Frontiers in Plant Science, 2018)

Tests used:
Experiment in all cases: LC-MRM-MS product quantification, non-linear regression
Format in all cases: biochemical, Arabidopsis thaliana
[1] = substrate: O=C(O)C(=O)CO; details: NADH (2 mM), 100 mM potassium phosphate pH 7.0, 4 mM DTT, 40 μM ascorbate, 30 °C
Source text: LC-MRM-MS product quantification, non-linear regression on HPR1

[2] = substrate: O=C(O)C(=O)Cc1ccccc1; details: NADPH (2 mM), 100 mM potassium phosphate pH 7.0, 4 mM DTT, 40 μM ascorbate, 30 °C
Source text: (§1) LC-MRM-MS product quantification, non-linear regression on HPPR3

[3] = substrate: O=C(O)C(=O)Cc1ccc(O)cc1; details: NADPH (2 mM), 100 mM potassium phosphate pH 7.0, 4 mM DTT, 40 μM ascorbate, 30 °C
Source text: as §1

[4] = substrate: O=C(O)C(=O)CO; details: NADPH (2 mM), 100 mM potassium phosphate pH 7.0, 4 mM DTT, 40 μM ascorbate, 30 °C
Source text: as §1

[5] = substrate: O=C(O)C(=O)Cc1ccccc1; details: NADPH (2 mM), 100 mM potassium phosphate pH 7.0, 4 mM DTT, 40 μM ascorbate, 30 °C; remark: listed apart in the source
Source text: (§2) LC-MRM-MS product quantification, non-linear regression on HPPR2

[6] = substrate: O=C(O)C(=O)Cc1ccc(O)cc1; details: NADPH (2 mM), 100 mM potassium phosphate pH 7.0, 4 mM DTT, 40 μM ascorbate, 30 °C; remark: listed apart in the source
Source text: as §2

[7] = substrate: O=C(O)C(=O)CO; details: NADPH (2 mM), 100 mM potassium phosphate pH 7.0, 4 mM DTT, 40 μM ascorbate, 30 °C; remark: listed apart in the source
Source text: as §2

B1: HPR1 (Arabidopsis thaliana) (protein)
chain: MAKPVSIEVYNPNGKYRVVSTKPMPGTRWINLLVDQGCRVEICHLKKTILSVEDIIDLIGDKCDGVIGQLTEDWGETLFSALSKAGGKAFSNMAVGYNNVDVEAANKYGIAVGNTPGVLTETTAELAASLSLAAARRIVEADEFMRGGLYEGWLPHLFVGNLLKGQTVGVIGAGRIGSAYARMMVEGFKMNLIYFDLYQSTRLEKFVTAYGQFLKANGEQPVTWKRASSMEEVLREADLISLHPVLDKTTYHLVNKERLAMMKKEAILVNCSRGPVIDEAALVEHLKENPMFRVGLDVFEEEPFMKPGLADTKNAIVVPHIASASKWTREGMATLAALNVLGRVKGYPIWHDPNRVDPFLNENASPPNASPSIVNSKALGLPVSKL
notes: coding region from Arabidopsis cDNA in pDEST17, His-tagged, E. coli, Ni-NTA purified
Km [1]: 1530 ± 720 µM
kcat [1]: 3.46 ± 0.0838 s⁻¹
kcat/Km [1]: 2570 ± 1040 M⁻¹ s⁻¹

B2: HPPR3 (Arabidopsis thaliana) (protein)
chain: MAESSEPPVVLLHRPPSLTFMDEILTREFRTLITDTSSSESLPSFFPRHASSARAFVISGRLPVTDELLSHLPSLQILVCTSVGIDHIDLAACKRRGIVITNAGNAFSDDVADCAVGLLISVLRRIPAADRYVRSGNWAKFGDFQLGSKVSGKRVGIVGLGSIGSFVAKRLESFGCVISYNSRSQKQSSPYRYYSDILSLAENNDVLVLCCSLTDETHHIVNREVMELLGKDGVVINVGRGKLIDEKEMVKCLVDGVIGGAGLDVFENEPAVPQELFGLDNVVLSPHFAVATPGSLDNVAQIALANLKAFFSNRPLLSPVQLD
notes: as for B1
Km [2]: 1520 ± 50 µM
kcat [2]: 0.611 ± 0.0692 s⁻¹
kcat/Km [2]: 402 ± 49.2 M⁻¹ s⁻¹
Km [3]: 370 ± 60 µM
kcat [3]: 0.285 ± 0.0158 s⁻¹
kcat/Km [3]: 785 ± 87.3 M⁻¹ s⁻¹
Km [4]: 3570 ± 480 µM
kcat [4]: 0.0518 ± 0.0035 s⁻¹
kcat/Km [4]: 14.8 ± 2.83 M⁻¹ s⁻¹

B3: HPPR2 (Arabidopsis thaliana) (protein)
chain: MESIGVLMMCPMSSYLENELEKRFNLLRFWTSPEKSVLLETHRNSIRAVVGNASAGADAQLISDLPNLEIVSSFSVGLDKIDLGKCKEKGIRVTNTPDVLTEDVADLAIGLILALLRRLCECDRYVRSGKWKQGEFQLTTKFSGKSVGIIGLGRIGTAIAKRAEAFSCPINYYSRTIKPDVAYKYYPTVVDLAQNSDILVVACPLTEQTRHIVDRQVMDALGAKGVLINIGRGPHVDEQELIKALTEGRLGGAALDVFEQEPHVPEELFGLENVVLLPHVGSGTVETRNAMADLVVGNLEAHFSGKSLLTPVV
notes: as for B1
Km [5]: 3700 ± 750 µM
kcat [5]: 0.0333 ± 0.00983 s⁻¹
kcat/Km [5]: 9 ± 1.17 M⁻¹ s⁻¹
Km [6]: 800 ± 160 µM
kcat [6]: 0.122 ± 0.0085 s⁻¹
kcat/Km [6]: 157 ± 36.3 M⁻¹ s⁻¹
Km [7]: 1050 ± 390 µM
kcat [7]: 0.926 ± 0.0788 s⁻¹
kcat/Km [7]: 950 ± 296 M⁻¹ s⁻¹
